Experimental data reported in US20200262877A1, “ION CHANNEL-BINDING PEPTIDES AND METHODS OF USE THEREOF” (priority 2017, published 2020).

Columns and labels:
[1] = system: GABA; assay: Ion channel panel (IonWorks Barracuda): GABA; format: cell-based; settings: 100% = no change, <100% = inhibition
Description: (§1) This example describes a method for assaying ion channel activity in cells.
(§2) Peptides were screened in duplicate at final concentrations of 20 μM and 200 nM, as determined by amino acid analysis, and diluted into HEPES buffered physiological saline (HBPS). HEK293 or CHO cells from the American Type Culture Collection (ATCC) were transfected with the appropriate ion channel before use. HEK293 cells were grown in Dulbecco's Modified Eagle Medium/Nutrient Mixture F-12, and CHO cells were cultured in Ham's F-12 media. All cultures were supplemented with 10% fetal bovine serum, 100 U/ml penicillin G, 100 μg/ml streptomycin sulfate, and the appropriate selection antibiotics. Prior to use, cells were washed twice with Hank's Balanced Salt Solution, and treated with Accutase cell detachment solution (Sigma-Aldrich). Cells were then washed. Peptides and controls were incubated with cells for at least five minutes.
(§3) Percent inhibition was defined as: (1-(Ipeptide/Icontrol))×100%).
(§4) Percent values were calculated using the following formula: % activation=(IPeptide/Icontrol)×100%, where IPeptide is the current produced by co-application a peptide with agonist, and Icontrol refers to the current produced by stimulation in control. Control used for each ion channel is the reference compound matched to a particular channel, as illustrated in TABLE 10 below.

[2] = target: T1, Cav2.2 (Homo sapiens, UniProt Q00975); assay: cell-based; settings: 100% = no change, <100% = inhibition
T1 construct: host or cells: HEK293 or CHO
Description: as §1, §2, §3, §4

[3] = target: T2, Kv2.1 (Homo sapiens, UniProt Q14721); assay: cell-based; settings: 100% = no change, <100% = inhibition
T2 construct: host or cells: HEK293 or CHO
Description: as §1, §2, §3, §4

[4] = target: T3, Cav2.1 (Homo sapiens, UniProt O00555); assay: cell-based; settings: 100% = no change, <100% = inhibition
T3 construct: host or cells: HEK293 or CHO
Description: as §1, §2, §3, §4

[5] = target: T4, α3β4 (Homo sapiens, UniProt P30926+P32297); assay: Ion channel panel (IonWorks Barracuda): α3β4; format: cell-based; settings: 100% = no change, <100% = inhibition
T4 construct: host or cells: HEK293 or CHO
Description: as §1, §2, §3, §4

[6] = target: T5, Kv1.2 (Homo sapiens, UniProt P16389); assay: cell-based; format: cell-based; settings: 100% = no change, <100% = inhibition
T5 construct: host or cells: HEK293 or CHO
Description: as §1, §2, §3, §4

[7] = target: T6, Kv1.1 (Homo sapiens, UniProt Q09470); assay: cell-based; format: cell-based; settings: 100% = no change, <100% = inhibition
T6 construct: host or cells: HEK293 or CHO
T6 sequence (Q09470 whole entry): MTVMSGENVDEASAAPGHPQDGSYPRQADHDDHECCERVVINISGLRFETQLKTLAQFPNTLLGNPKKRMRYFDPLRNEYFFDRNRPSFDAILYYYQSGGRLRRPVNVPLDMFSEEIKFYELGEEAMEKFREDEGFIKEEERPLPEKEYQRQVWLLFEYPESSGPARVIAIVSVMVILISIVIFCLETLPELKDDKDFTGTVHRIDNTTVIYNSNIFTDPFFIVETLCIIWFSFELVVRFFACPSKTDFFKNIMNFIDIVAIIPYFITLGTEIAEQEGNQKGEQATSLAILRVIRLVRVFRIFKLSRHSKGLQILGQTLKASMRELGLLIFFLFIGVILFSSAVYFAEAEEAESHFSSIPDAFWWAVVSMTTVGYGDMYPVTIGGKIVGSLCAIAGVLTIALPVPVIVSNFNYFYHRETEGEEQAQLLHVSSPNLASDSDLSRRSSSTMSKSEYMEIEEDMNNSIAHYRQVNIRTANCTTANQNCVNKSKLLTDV
Description: as §1, §2, §3, §4

[8] = target: T7, Kv1.3 (Homo sapiens, UniProt P22001); assay: cell-based; format: cell-based; settings: 100% = no change, <100% = inhibition
T7 construct: host or cells: HEK293 or CHO
T7 sequence (P22001 whole entry): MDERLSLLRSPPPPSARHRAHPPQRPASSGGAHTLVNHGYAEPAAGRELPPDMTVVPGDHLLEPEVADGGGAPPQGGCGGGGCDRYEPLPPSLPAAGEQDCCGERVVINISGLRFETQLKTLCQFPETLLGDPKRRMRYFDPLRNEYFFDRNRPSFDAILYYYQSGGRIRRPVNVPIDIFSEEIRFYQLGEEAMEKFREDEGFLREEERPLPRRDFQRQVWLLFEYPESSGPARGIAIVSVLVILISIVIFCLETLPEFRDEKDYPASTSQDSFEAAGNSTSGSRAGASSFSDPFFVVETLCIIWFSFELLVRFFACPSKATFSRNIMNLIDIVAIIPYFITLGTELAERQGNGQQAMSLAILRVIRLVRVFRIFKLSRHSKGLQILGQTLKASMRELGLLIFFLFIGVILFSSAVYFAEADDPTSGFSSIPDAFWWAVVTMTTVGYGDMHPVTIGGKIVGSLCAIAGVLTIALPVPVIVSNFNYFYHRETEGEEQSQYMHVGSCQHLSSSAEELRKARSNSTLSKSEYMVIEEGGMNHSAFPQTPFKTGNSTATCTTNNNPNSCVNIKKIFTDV
Description: as §1, §2, §3, §4

[9] = target: T8, Nav1.7 (Homo sapiens, UniProt Q15858); assay: cell-based; format: cell-based; settings: 100% = no change; for Activity of Nav1.7 with peptide, expressed as a percentage of the reference compound: peptide at 0.2 μM; for Activity of Nav1.7 with peptide (percentage of the reference compound): peptide at 20 μM
T8 construct: host or cells: HEK293 or CHO
T8 sequence (Q15858 whole entry): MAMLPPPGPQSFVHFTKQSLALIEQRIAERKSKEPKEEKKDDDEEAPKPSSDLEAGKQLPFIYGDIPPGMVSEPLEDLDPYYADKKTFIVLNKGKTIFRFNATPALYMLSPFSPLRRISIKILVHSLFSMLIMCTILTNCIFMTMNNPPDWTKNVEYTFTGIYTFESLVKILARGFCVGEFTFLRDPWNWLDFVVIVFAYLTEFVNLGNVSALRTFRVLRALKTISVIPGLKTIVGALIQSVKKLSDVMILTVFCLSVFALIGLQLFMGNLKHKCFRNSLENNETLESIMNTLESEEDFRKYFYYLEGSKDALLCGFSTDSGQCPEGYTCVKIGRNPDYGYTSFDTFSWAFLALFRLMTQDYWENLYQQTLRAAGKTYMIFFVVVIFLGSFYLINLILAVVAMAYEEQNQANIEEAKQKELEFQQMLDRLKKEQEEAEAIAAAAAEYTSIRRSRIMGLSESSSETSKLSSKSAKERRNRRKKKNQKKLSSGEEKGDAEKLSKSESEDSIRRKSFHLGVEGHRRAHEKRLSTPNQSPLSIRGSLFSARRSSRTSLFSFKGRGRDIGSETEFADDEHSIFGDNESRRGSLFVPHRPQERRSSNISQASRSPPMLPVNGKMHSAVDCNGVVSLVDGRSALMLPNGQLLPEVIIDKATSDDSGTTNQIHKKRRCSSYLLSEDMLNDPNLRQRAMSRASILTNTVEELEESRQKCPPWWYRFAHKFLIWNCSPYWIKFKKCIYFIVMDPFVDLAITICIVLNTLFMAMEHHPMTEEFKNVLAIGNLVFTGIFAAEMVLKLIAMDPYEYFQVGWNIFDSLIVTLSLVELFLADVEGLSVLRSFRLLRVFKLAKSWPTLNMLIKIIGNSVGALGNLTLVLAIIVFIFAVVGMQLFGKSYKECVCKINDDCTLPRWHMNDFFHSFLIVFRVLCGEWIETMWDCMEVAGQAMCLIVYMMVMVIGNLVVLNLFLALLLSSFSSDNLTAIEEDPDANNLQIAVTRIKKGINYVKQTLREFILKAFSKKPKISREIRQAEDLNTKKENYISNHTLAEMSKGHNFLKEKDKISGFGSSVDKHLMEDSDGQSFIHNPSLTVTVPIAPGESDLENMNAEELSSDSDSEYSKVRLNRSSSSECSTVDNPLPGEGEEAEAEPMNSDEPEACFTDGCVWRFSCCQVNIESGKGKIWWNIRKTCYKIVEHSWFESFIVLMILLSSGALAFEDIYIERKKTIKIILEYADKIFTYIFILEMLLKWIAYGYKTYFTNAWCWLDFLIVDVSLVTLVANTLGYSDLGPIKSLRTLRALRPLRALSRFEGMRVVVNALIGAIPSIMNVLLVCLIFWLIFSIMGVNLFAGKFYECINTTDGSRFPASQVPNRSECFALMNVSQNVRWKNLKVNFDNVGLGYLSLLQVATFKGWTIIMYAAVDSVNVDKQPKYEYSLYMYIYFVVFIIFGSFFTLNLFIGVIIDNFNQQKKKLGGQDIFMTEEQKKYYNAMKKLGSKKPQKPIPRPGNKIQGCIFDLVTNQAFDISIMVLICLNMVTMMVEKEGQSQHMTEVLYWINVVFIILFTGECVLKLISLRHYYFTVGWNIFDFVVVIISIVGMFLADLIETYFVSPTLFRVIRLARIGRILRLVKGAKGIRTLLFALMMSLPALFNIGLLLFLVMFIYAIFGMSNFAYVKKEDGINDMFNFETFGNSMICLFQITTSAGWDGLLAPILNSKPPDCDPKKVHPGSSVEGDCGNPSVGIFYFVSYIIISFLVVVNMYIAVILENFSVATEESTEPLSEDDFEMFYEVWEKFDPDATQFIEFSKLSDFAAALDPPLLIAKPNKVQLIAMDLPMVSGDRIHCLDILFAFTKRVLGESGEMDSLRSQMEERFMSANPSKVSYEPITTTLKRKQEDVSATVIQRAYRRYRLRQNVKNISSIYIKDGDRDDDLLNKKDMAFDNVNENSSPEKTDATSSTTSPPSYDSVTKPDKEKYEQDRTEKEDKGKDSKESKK
Description: as §1
as §2, with “Peptides were screened in duplicate at final concentrations of 20 μM and 200 nM, as determined by amino acid analysis, and diluted into HEPES buffered physiological saline (HBPS).” left out
as §3, §4

[10] = target: T9, NR2A (Homo sapiens, UniProt Q12879); assay: Ion channel panel (IonWorks Barracuda): NR2A; format: cell-based; settings: 100% = no change, <100% = inhibition
T9 construct: host or cells: HEK293 or CHO
Description: as §1, §2, §3, §4

[11] = target: T10, TRPA1 (Homo sapiens, UniProt O75762); assay: Ion channel panel (IonWorks Barracuda): TRPA1; format: cell-based; settings: 100% = no change, <100% = inhibition
T10 construct: host or cells: HEK293 or CHO
Description: as §1, §2, §3, §4

[12] = target: T11, α4β2 (Homo sapiens, UniProt P17787+P43681); assay: Ion channel panel (IonWorks Barracuda): α4β2; format: cell-based; settings: 100% = no change, <100% = inhibition
T11 construct: host or cells: HEK293 or CHO
Description: as §1, §2, §3, §4

[13] = target: T12, 5HT3a (Homo sapiens, UniProt P46098); assay: Ion channel panel (IonWorks Barracuda): 5HT3a; format: cell-based
T12 construct: host or cells: HEK293 or CHO
T12 sequence (P46098 whole entry, looked up): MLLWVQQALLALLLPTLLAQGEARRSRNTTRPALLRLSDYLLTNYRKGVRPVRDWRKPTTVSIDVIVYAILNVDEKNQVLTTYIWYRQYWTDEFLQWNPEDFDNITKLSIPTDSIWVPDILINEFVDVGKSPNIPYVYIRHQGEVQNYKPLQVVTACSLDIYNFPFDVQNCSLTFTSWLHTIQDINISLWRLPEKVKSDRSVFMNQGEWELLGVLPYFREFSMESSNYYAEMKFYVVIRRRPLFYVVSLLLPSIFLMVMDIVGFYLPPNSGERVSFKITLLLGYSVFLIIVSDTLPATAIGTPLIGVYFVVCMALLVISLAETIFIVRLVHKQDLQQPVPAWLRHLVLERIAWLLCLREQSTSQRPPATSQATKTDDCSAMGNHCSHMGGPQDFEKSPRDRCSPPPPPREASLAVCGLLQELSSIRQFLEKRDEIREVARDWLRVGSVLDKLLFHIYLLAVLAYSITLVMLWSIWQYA
Description: as §1, §2, §3, §4

[14] = target: T13, NR2B (Homo sapiens, UniProt Q13224); assay: Ion channel panel (IonWorks Barracuda): NR2B; format: cell-based; settings: 100% = no change, <100% = inhibition
T13 construct: host or cells: HEK293 or CHO
Description: as §1, §2, §3, §4

[15] = target: Nav1.5 (Homo sapiens, UniProt Q14524); assay: in vitro; settings: 100% = no change; for Activity of Nav1.5 with peptide, expressed as a percentage of the reference compound: peptide at 0.2 μM; for Activity of Nav1.5 with peptide (percentage of the reference compound): peptide at 20 μM
Chain of Nav1.5 (Q14524 whole entry): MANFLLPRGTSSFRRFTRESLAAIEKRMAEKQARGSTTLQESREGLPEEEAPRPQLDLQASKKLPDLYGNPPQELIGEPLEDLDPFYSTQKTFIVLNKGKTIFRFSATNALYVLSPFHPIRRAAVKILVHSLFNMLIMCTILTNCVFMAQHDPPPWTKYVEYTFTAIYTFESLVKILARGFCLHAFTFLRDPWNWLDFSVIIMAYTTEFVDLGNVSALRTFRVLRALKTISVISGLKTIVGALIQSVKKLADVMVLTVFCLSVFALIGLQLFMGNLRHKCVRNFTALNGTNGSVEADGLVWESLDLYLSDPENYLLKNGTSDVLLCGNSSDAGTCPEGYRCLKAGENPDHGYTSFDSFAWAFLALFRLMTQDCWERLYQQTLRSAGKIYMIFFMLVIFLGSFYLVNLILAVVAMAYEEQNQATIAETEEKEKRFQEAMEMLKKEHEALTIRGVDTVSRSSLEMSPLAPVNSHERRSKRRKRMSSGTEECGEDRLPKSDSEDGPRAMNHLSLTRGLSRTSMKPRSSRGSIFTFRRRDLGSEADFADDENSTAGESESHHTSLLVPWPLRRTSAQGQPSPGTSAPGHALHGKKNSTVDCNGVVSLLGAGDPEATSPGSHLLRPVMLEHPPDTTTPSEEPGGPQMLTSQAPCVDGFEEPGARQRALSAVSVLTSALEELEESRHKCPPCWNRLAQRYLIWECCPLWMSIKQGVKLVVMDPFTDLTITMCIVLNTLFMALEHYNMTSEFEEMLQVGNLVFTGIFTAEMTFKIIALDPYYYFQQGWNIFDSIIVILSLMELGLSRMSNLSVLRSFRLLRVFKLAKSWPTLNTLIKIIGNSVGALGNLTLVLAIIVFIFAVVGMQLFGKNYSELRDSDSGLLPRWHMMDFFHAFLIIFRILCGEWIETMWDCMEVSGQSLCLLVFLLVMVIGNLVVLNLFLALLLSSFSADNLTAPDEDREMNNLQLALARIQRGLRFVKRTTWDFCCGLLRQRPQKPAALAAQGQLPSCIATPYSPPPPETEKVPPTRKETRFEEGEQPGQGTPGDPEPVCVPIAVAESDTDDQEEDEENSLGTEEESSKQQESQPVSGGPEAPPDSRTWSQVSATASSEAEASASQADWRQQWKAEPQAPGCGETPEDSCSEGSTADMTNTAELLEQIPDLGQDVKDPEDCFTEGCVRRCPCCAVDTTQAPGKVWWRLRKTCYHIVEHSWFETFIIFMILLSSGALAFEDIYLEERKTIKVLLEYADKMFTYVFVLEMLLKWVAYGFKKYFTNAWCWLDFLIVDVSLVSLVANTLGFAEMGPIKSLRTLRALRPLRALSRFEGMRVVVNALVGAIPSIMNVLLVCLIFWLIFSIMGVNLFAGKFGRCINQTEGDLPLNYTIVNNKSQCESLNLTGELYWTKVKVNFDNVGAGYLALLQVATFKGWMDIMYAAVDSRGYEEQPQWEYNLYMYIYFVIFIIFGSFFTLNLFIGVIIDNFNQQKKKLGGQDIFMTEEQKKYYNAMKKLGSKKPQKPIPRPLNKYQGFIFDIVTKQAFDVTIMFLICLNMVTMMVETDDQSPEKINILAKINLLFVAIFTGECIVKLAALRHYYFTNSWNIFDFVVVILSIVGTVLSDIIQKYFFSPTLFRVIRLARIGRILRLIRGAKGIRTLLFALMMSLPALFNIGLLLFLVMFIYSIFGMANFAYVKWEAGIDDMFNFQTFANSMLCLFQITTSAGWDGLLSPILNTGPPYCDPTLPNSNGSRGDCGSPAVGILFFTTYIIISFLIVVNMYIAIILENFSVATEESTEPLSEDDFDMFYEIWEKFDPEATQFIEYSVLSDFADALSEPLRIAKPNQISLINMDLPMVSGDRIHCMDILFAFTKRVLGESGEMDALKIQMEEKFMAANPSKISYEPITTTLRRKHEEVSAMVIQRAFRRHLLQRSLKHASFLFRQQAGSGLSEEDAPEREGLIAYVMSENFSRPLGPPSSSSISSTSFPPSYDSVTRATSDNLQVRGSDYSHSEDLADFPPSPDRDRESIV
Description: as §1, §2, §3, §4

[16] = target: hERG (Homo sapiens, UniProt Q12809); assay: in vitro; settings: 100% = no change, <100% = inhibition
Description: as §1, §2, §3, §4

[17] = target: T14, TRPV1 (Homo sapiens, UniProt Q8NER1); assay: Ion channel panel (IonWorks Barracuda): TRPV1; format: cell-based; settings: 100% = no change, <100% = inhibition
T14 construct: host or cells: HEK293 or CHO
Description: as §1, §2, §3, §4

[18] = target: T15, Kir2.1 (Homo sapiens, UniProt P63252); assay: Ion channel panel (IonWorks Barracuda): Kir2.1; format: cell-based; settings: 100% = no change, <100% = inhibition
T15 construct: host or cells: HEK293 or CHO
Description: as §1, §2, §3, §4

[19] = first of two Nav1.7 columns (probably TP1)
[20] = second of two Nav1.7 columns (probably TP2)
[21] = first of two Nav1.5 columns (probably TP1)
[22] = second of two Nav1.5 columns (probably TP2)

11 (GSGDCLPHLKRCKENNDCCSKKCKRRGANPEKRCR) [compound 11]
Activity of GABA with peptide, expressed as a percentage of the reference compound ([1]; peptide at 0.2 μM): 96% | Activity of GABA with peptide (percentage of the reference compound) ([1]; peptide at 20 μM): 105% | Activity of Cav2.2 with peptide, expressed as a percentage of the reference compound ([2]; peptide at 0.2 μM): 100% | Activity of Cav2.2 with peptide (percentage of the reference compound) ([2]; peptide at 20 μM): 103% | Activity of Kv2.1 with peptide, expressed as a percentage of the reference compound ([3]; peptide at 0.2 μM): 121% | Activity of Kv2.1 with peptide (percentage of the reference compound) ([3]; peptide at 20 μM): 110% | Activity of Cav2.1 with peptide, expressed as a percentage of the reference compound ([4]; peptide at 0.2 μM): 104% | Activity of Cav2.1 with peptide (percentage of the reference compound) ([4]; peptide at 20 μM): 110% | Activity of a3b4 with peptide, expressed as a percentage of the reference compound ([5]; peptide at 0.2 μM): 95% | Activity of a3b4 with peptide (percentage of the reference compound) ([5]; peptide at 20 μM): 96% | Activity of Kv1.2 with peptide, expressed as a percentage of the reference compound ([6]; peptide at 0.2 μM): 103% | Activity of Kv1.2 with peptide (percentage of the reference compound) ([6]; peptide at 20 μM): 46% | Activity of Kv1.1 with peptide, expressed as a percentage of the reference compound ([7]; peptide at 0.2 μM): 99% | Activity of Kv1.1 with peptide (percentage of the reference compound) ([7]; peptide at 20 μM): 55% | Activity of Kv1.3 with peptide, expressed as a percentage of the reference compound ([8]; peptide at 0.2 μM): 101% | Activity of Kv1.3 with peptide (percentage of the reference compound) ([8]; peptide at 20 μM): 87% | Activity of Nav1.7 with peptide, expressed as a percentage of the reference compound [9, 19]: 107% | Activity of Nav1.7 with peptide, expressed as a percentage of the reference compound [9, 20]: 107% | Activity of Nav1.7 with peptide (percentage of the reference compound) [9, 19]: 96% | Activity of Nav1.7 with peptide (percentage of the reference compound) [9, 20]: 87% | Activity of NR2A with peptide, expressed as a percentage of the reference compound ([10]; peptide at 0.2 μM): 103% | Activity of NR2A with peptide (percentage of the reference compound) ([10]; peptide at 20 μM): 106% | Activity of TRPA1 with peptide, expressed as a percentage of the reference compound ([11]; peptide at 0.2 μM): 100% | Activity of TRPA1 with peptide (percentage of the reference compound) ([11]; peptide at 20 μM): 109% | Activity of a4b2 with peptide, expressed as a percentage of the reference compound ([12]; peptide at 0.2 μM): 111% | Activity of a4b2 with peptide (percentage of the reference compound) ([12]; peptide at 20 μM): 88% | Activity of 5HT3a with peptide (percentage of the reference compound) [13]: 85% | Activity of 5HT3a with peptide, expressed as a percentage of the reference compound [13]: 73% | Activity of NR2B with peptide, expressed as a percentage of the reference compound ([14]; peptide at 0.2 μM): 103% | Activity of NR2B with peptide (percentage of the reference compound) ([14]; peptide at 20 μM): 78% | Activity of Nav1.5 with peptide, expressed as a percentage of the reference compound [15, 21]: 107% | Activity of Nav1.5 with peptide, expressed as a percentage of the reference compound [15, 22]: 107% | Activity of Nav1.5 with peptide (percentage of the reference compound) [15, 21]: 113% | Activity of Nav1.5 with peptide (percentage of the reference compound) [15, 22]: 118% | Activity of hERG with peptide, expressed as a percentage of the reference compound ([16]; peptide at 0.2 μM): 97% | Activity of hERG with peptide (percentage of the reference compound) ([16]; peptide at 20 μM): 99% | Activity of TRPV1 with peptide, expressed as a percentage of the reference compound ([17]; peptide at 0.2 μM): 100% | Activity of TRPV1 with peptide (percentage of the reference compound) ([17]; peptide at 20 μM): 100% | Activity of Kir2.1 with peptide, expressed as a percentage of the reference compound ([18]; peptide at 0.2 μM): 107% | Activity of Kir2.1 with peptide (percentage of the reference compound) ([18]; peptide at 20 μM): 97%
